Experiment in all cases: cell-based or functional assay
In one assay the target is CD19 (human) (UniProt P15391).
Assay [1] has as its target anti-FITC CAR (FITC-E2 scFv, CD8 hinge and transmembrane region, 41BB and CD3 zeta) on human T cells.
Assay [2] concerns the target anti-FITC CAR with the 4-4-20 scFv (LV-EF1a-4-4-20-BBZ), on transduced human T cells.
For assay [3], the target named is anti-FITC CAR with the 4D5Flu scFv (LV-EF1a-4D5Flu-BBZ), on transduced human T cells.
For assay [4], the target named is anti-FITC CAR with the 4M5.3 scFv (LV-EF1a-4M5.3-BBZ), on transduced human T cells.
The target in assay [5] is anti-FITC CAR with the fully human FITC-E2 scFv (CD8 hinge, 41BB, CD3 zeta), on transduced human T cells.
For assay [6], the target named is CD33 on MOLM14 cells (human) (UniProt P20138).
Assay [7] concerns the target CD19 on NALM-6 (CD19+) cells (human) (UniProt P15391).

Several values for one entry are separate records, joined by “and”; a condition that tells them apart may be missing. Identical values can stand only once.

Sequence of CD19 (human) (P15391 20-556): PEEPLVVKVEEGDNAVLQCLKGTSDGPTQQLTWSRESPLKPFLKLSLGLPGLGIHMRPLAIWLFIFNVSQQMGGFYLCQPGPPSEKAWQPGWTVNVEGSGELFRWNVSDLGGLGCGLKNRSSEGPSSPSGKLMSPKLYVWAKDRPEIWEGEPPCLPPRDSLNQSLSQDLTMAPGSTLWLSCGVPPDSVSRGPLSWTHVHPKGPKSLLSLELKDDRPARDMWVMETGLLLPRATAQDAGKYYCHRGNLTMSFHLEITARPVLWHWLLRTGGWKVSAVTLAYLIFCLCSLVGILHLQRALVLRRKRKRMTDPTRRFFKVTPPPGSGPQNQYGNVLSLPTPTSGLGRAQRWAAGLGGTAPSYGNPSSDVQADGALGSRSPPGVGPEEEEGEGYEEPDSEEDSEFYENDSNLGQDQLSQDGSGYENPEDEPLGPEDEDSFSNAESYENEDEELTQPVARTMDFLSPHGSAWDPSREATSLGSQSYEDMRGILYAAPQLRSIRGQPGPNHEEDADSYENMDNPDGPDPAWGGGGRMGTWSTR
Sequence of CD19 on NALM-6 (CD19+) cells (human) (P15391 20-556): as above
Sequence of anti-FITC CAR with the fully human FITC-E2 scFv (CD8 hinge, 41BB, CD3 zeta), on transduced human T cells (chain, as listed by the source limits assumed): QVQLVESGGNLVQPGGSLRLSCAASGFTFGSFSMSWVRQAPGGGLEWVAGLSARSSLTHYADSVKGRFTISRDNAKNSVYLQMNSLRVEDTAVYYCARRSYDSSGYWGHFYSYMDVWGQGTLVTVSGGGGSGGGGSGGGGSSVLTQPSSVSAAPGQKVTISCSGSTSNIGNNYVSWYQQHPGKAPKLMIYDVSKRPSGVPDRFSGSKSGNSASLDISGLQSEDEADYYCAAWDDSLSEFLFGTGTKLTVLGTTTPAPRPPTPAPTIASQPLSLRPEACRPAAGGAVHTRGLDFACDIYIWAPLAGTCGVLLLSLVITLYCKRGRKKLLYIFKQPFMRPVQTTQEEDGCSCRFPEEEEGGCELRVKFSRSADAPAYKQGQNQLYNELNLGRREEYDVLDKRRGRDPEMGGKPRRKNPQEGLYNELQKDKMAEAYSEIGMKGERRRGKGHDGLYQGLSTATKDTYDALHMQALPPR
Sequence of CD33 on MOLM14 cells (human) (P20138 18-364): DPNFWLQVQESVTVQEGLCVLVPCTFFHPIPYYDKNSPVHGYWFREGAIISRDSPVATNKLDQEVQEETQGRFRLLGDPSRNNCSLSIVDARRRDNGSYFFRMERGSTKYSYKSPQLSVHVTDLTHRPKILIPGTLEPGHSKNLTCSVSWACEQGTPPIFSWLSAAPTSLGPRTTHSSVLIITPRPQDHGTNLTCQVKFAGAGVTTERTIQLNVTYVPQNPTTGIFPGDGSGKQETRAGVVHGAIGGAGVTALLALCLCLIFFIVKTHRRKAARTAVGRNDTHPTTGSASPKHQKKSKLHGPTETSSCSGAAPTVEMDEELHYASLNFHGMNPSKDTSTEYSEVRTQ

For the substance “CART-19: second generation CD19 specific CAR with anti-CD19 scFv (clone FMC63), 41BB and CD3zeta, on human T cells”, in the assay with CD19 (human), the Human IFN-g, CART19 + Nalm-6 is 915 and 924 and 951; the target cell lysis, CART19 + Nalm-6, E:T 0.04:1 is 12.6 and 13; the target cell lysis, CART19 + Nalm-6, E:T 0.2:1 was 21.7 and 24.5; the target cell lysis, CART19 + Nalm-6, E:T printed as 1:01 is 52 and 48. In addition, in the assay with CD19 (human), the target cell lysis, CART19 + Nalm-6, E:T printed as 5:01 is 75.2 and 73.3; the target cell lysis, CART19 + Nalm-6, E:T printed as 15:01 is 87.3 and 88.3.
As for “anti-CD19 AB-FITC switch (anti-CD19 Fab, clone FMC63, FITC conjugated at light chain glycine 68 and heavy chain serine 74)”, in assay [1], the % cytotoxicity, anti-FITC CAR-T + NALM-6 + 10 pM AB-FITC, with 0 nM free fluorescein stood at 54.8%; the % cytotoxicity, anti-FITC CAR-T + NALM-6 + 10 pM AB-FITC, with 1 nM free fluorescein was 57.1% and 58.1%; the % cytotoxicity, anti-FITC CAR-T + NALM-6 + 10 pM AB-FITC, with 10 nM free fluorescein was 56.2% and 56%; the % cytotoxicity, anti-FITC CAR-T + NALM-6 + 10 pM AB-FITC, with 100 nM free fluorescein is 55.7%. In addition, in assay [1], the % cytotoxicity, anti-FITC CAR-T + NALM-6 + 10 pM AB-FITC, with 1000 nM free fluorescein is 50.4% and 50.9%; the % cytotoxicity, anti-FITC CAR-T + NALM-6 + 10 pM AB-FITC, with 10000 nM free fluorescein is 27.4% and 31.6%.
Turning to “anti-CD19 AB-FITC switch (anti-human CD19 Fab, clone FMC63, FITC conjugated at light chain glycine 68 and heavy chain serine 74)”, in assay [2], the % cytotoxicity of CD19+ target cells, FIG. 68A, switch at 0.01 pM was determined as 0.526%; the % cytotoxicity of CD19+ target cells, FIG. 68A, switch at 0.1 pM was 32.8% and 33.3%; the % cytotoxicity of CD19+ target cells, FIG. 68A, switch at 1 pM was 52.3%; the % cytotoxicity of CD19+ target cells, FIG. 68A, switch at 10 pM is 64.9% and 66.1%. Besides, in assay [2], the % cytotoxicity of CD19+ target cells, FIG. 68A, switch at 100 pM is 71.7% and 65.6%; the % cytotoxicity of CD19+ target cells, FIG. 68A, switch at 1000 pM came out at 67.8%; the % cytotoxicity of CD19+ target cells, FIG. 68A, switch at 10000 pM is 74.1% and 71.5%; the % cytotoxicity of CD19+ target cells, FIG. 68A, switch at 1.00E-03 pM worked out at 4.97%. Moreover, in assay [2], the % cytotoxicity of CD19+ target cells, FIG. 68B, switch at 0.1 pM was 14.8% and 10.9%; the % cytotoxicity of CD19+ target cells, FIG. 68B, switch at 1 pM is 36.7% and 37.8%; the % cytotoxicity of CD19+ target cells, FIG. 68B, switch at 10 pM was 59% and 46.7%; the % cytotoxicity of CD19+ target cells, FIG. 68B, switch at 100 pM was 57.9%. Besides, in assay [2], the % cytotoxicity of CD19+ target cells, FIG. 68B, switch at 1000 pM was determined as 55.8% and the % cytotoxicity of CD19+ target cells, FIG. 68B, switch at 10000 pM is 68.6%. Also, in assay [3], the % cytotoxicity of CD19+ target cells, FIG. 68A, switch at 0.01 pM was 24% and 29.5%; the % cytotoxicity of CD19+ target cells, FIG. 68A, switch at 0.1 pM was 39.3% and 45.7%; the % cytotoxicity of CD19+ target cells, FIG. 68A, switch at 1 pM was found to be 60.1%; the % cytotoxicity of CD19+ target cells, FIG. 68A, switch at 10 pM is 56.1% and 67.7%. Moreover, in assay [3], the % cytotoxicity of CD19+ target cells, FIG. 68A, switch at 100 pM is 74.3% and 69.3%; the % cytotoxicity of CD19+ target cells, FIG. 68A, switch at 1000 pM was 84.8%; the % cytotoxicity of CD19+ target cells, FIG. 68A, switch at 10000 pM was 73.6% and 76.9%; the % cytotoxicity of CD19+ target cells, FIG. 68A, switch at 1.00E-04 pM stood at 6.29%. In addition, in assay [3], the % cytotoxicity of CD19+ target cells, FIG. 68B, switch at 0.01 pM was 1.9% and 8.37%; the % cytotoxicity of CD19+ target cells, FIG. 68B, switch at 0.1 pM was 10.9% and 10.4%; the % cytotoxicity of CD19+ target cells, FIG. 68B, switch at 1 pM was 39.4% and 32.9%; the % cytotoxicity of CD19+ target cells, FIG. 68B, switch at 10 pM is 63.2% and 68.1%. In assay [3], the % cytotoxicity of CD19+ target cells, FIG. 68B, switch at 100 pM was 69.4% and 61.2%; the % cytotoxicity of CD19+ target cells, FIG. 68B, switch at 1000 pM is 72.5% and 63.6%; the % cytotoxicity of CD19+ target cells, FIG. 68B, switch at 10000 pM is 69.1% and 66.8%. Besides, in assay [4], the % cytotoxicity of CD19+ target cells, FIG. 68A, switch at 0.01 pM worked out at 21%; the % cytotoxicity of CD19+ target cells, FIG. 68A, switch at 0.1 pM is 46.4% and 33.9%; the % cytotoxicity of CD19+ target cells, FIG. 68A, switch at 1 pM is 58.2% and 56.6%; the % cytotoxicity of CD19+ target cells, FIG. 68A, switch at 10 pM was 58.9% and 48.9%. For the same substance, in assay [4], the % cytotoxicity of CD19+ target cells, FIG. 68A, switch at 100 pM is 70.5% and 71.3%; the % cytotoxicity of CD19+ target cells, FIG. 68A, switch at 1000 pM was 83.2%; the % cytotoxicity of CD19+ target cells, FIG. 68A, switch at 10000 pM was 85.7% and 72%; the % cytotoxicity of CD19+ target cells, FIG. 68B, switch at 0.0001 pM was 2%. Further, in assay [4], the % cytotoxicity of CD19+ target cells, FIG. 68B, switch at 0.001 pM amounted to 9.17%; the % cytotoxicity of CD19+ target cells, FIG. 68B, switch at 0.01 pM is 1.15%; the % cytotoxicity of CD19+ target cells, FIG. 68B, switch at 0.1 pM worked out at 25.4%; the % cytotoxicity of CD19+ target cells, FIG. 68B, switch at 1 pM was 28.5% and 27.5%. In addition, in assay [4], the % cytotoxicity of CD19+ target cells, FIG. 68B, switch at 10 pM was 58.4%; the % cytotoxicity of CD19+ target cells, FIG. 68B, switch at 100 pM was 60.8% and 65.8%; the % cytotoxicity of CD19+ target cells, FIG. 68B, switch at 1000 pM is 73.4% and 71.5%; the % cytotoxicity of CD19+ target cells, FIG. 68B, switch at 10000 pM is 64.2% and 55.2%. Moreover, in assay [5], the % cytotoxicity of CD19+ target cells, FIG. 68A, switch at 0.01 pM is 26.7% and 38.4%; the % cytotoxicity of CD19+ target cells, FIG. 68A, switch at 0.1 pM is 49% and 60.5%; the % cytotoxicity of CD19+ target cells, FIG. 68A, switch at 1 pM was 51% and 75.3%; the % cytotoxicity of CD19+ target cells, FIG. 68A, switch at 10 pM is 62.1% and 75.5%. Further, in assay [5], the % cytotoxicity of CD19+ target cells, FIG. 68A, switch at 100 pM is 69.6% and 80.5%; the % cytotoxicity of CD19+ target cells, FIG. 68A, switch at 1000 pM is 80.6% and 99.8%; the % cytotoxicity of CD19+ target cells, FIG. 68A, switch at 10000 pM was 93.1% and 100%; the % cytotoxicity of CD19+ target cells, FIG. 68A, switch at 1.00E-03 pM was 10.3% and 25.2%. In addition, in assay [5], the % cytotoxicity of CD19+ target cells, FIG. 68B, switch at 0.0001 pM is 3.26% and 17%; the % cytotoxicity of CD19+ target cells, FIG. 68B, switch at 0.001 pM is 19.6%; the % cytotoxicity of CD19+ target cells, FIG. 68B, switch at 0.01 pM is 17.4%; the % cytotoxicity of CD19+ target cells, FIG. 68B, switch at 0.1 pM was 15%. In addition, in assay [5], the % cytotoxicity of CD19+ target cells, FIG. 68B, switch at 1 pM is 47.4% and 43.2%; the % cytotoxicity of CD19+ target cells, FIG. 68B, switch at 10 pM was 64.6% and 70.1%; the % cytotoxicity of CD19+ target cells, FIG. 68B, switch at 100 pM was 60.7% and 67.6%; the % cytotoxicity of CD19+ target cells, FIG. 68B, switch at 1000 pM came out at 70.4%. Moreover, the % cytotoxicity of CD19+ target cells, FIG. 68B, switch at 10000 pM in assay [5] was 72.7% and 75.4%.
In assay [6], “anti-CD33 hM195 CD-FITC switch (light chain T113 and heavy chain A117) (Fab)” had an EC50 of cytotoxicity of anti-FITC CAR-T cells against MOLM14 cells of 18.5 pM.
Regarding isotype control (Millipore) (antibody), in assay [7], the % cytotoxicity, anti-FITC CAR-T + NALM-6 + 10 pM AB-FITC, with 0 pM isotype (IgG) is 54.6% and 51.4%; the % cytotoxicity, anti-FITC CAR-T + NALM-6 + 10 pM AB-FITC, with 1 pM isotype (IgG) was 48.3% and 48.2%; the % cytotoxicity, anti-FITC CAR-T + NALM-6 + 10 pM AB-FITC, with 10 pM isotype (IgG) is 49.6% and 49.9%; the % cytotoxicity, anti-FITC CAR-T + NALM-6 + 10 pM AB-FITC, with 100 pM isotype (IgG) is 50% and 44.7%. In assay [7], the % cytotoxicity, anti-FITC CAR-T + NALM-6 + 10 pM AB-FITC, with 1000 pM isotype (IgG) is 45.7% and 41.6%; the % cytotoxicity, anti-FITC CAR-T + NALM-6 + 10 pM AB-FITC, with 10000 pM isotype (IgG) is 44.4% and 43%.
As to “non-conjugated anti-CD19 Fab (clone FMC63)”, in assay [1], the % cytotoxicity at 0.0001 pM; anti-FITC CAR-T; FIG. 72A amounted to 1.78%, the % cytotoxicity at 0.0001 pM; anti-FITC CAR-T; FIG. 72C was determined as 1.12%, the % cytotoxicity at 0.001 pM; anti-FITC CAR-T; FIG. 72A stood at 0.731% and the % cytotoxicity at 0.001 pM; anti-FITC CAR-T; FIG. 72B came to 2.73%. In assay [1], this substance yielded a % cytotoxicity at 0.001 pM; anti-FITC CAR-T; FIG. 72C of 5.24%, a % cytotoxicity at 0.01 pM; anti-FITC CAR-T; FIG. 72A of 8.15%, a % cytotoxicity at 0.01 pM; anti-FITC CAR-T; FIG. 72B of 2.04% and a % cytotoxicity at 0.1 pM; anti-FITC CAR-T; FIG. 72A of 1.96%. In assay [1], this substance came in with a % cytotoxicity at 0.1 pM; anti-FITC CAR-T; FIG. 72C of 2.66%, a % cytotoxicity at 1 pM; anti-FITC CAR-T; FIG. 72A of 4.93%, a % cytotoxicity at 1 pM; anti-FITC CAR-T; FIG. 72B of 3.84% and a % cytotoxicity at 1 pM; anti-FITC CAR-T; FIG. 72C of 1.99%. Moreover, in assay [1], the % cytotoxicity at 10 pM; anti-FITC CAR-T; FIG. 72A was 3.73% and 2.56%; the % cytotoxicity at 10 pM; anti-FITC CAR-T; FIG. 72B is 4.56% and 2.09%; the % cytotoxicity at 10 pM; anti-FITC CAR-T; FIG. 72C is 1.85% and 9.94%; the % cytotoxicity at 100 pM; anti-FITC CAR-T; FIG. 72A was 4.61% and 8.92%. In assay [1], the % cytotoxicity at 100 pM; anti-FITC CAR-T; FIG. 72B is 3.24% and 1.4%; the % cytotoxicity at 100 pM; anti-FITC CAR-T; FIG. 72C is 4.45% and 12.1%; the % cytotoxicity at 1000 pM; anti-FITC CAR-T; FIG. 72B is 10.5% and 2.6%; the % cytotoxicity at 1000 pM; anti-FITC CAR-T; FIG. 72C was 2.18% and 5.61%. Moreover, in assay [1], the % cytotoxicity at 10000 pM; anti-FITC CAR-T; FIG. 72A is 11.7% and 1.87%; the % cytotoxicity at 10000 pM; anti-FITC CAR-T; FIG. 72B amounted to 2.58%; the % cytotoxicity at 10000 pM; anti-FITC CAR-T; FIG. 72C is 1.37% and 1.83%.

For the origin of these results see patent US20180100026A1.
